Test results reported in publication PMC9278091, “ATP‐independent molecular chaperone activity generated under reducing conditions” (Protein Science : A Publication of the Protein Society, 2022).
“And” between values parts separate entries of the source, which are not always exact repeats. Identical values can stand only once. Blank lines part the entries; values can stand above or below the binder they belong to.

B2: NT*-Bri2 BRICHOScys mutant C164S (NT*-Bri2 BRICHOScys 223-223 dimer) (domain or fragment, human, UniProt Q9Y287 113-231, looked up)
chain: QTIEENIKIFEEEEVEFISVPVPEFADSDPANIVHDFNKKLTAYLDLNLDKSYVIPLNTSIVMPPRNLLELLINIKAGTYLPQSYLIHEHMVITDRIENIDHLGFFIYRLCHDKETYKL
modifications: intermolecular Cys223-Cys223 homodisulfide
notes: Bri2 (integral membrane protein 2B), human, BRICHOS domain, residues 113-231 of full-length human Bri2, C164S; NT* fusion kept as a means to tell the species apart by size; also called Cys223 dimers; source: E. coli, dimer fraction purified with NT* solubility tag

Experiments:
[1] = molecular target: the molecule itself; experiment: SEC; Bri2 BRICHOS monomers, non-incubated or incubated at 37°C without reductant; 20 mM phosphate buffer, 0.2 mM EDTA, pH 8; monomer to dimers and tetramers
[2] = molecular target: the molecule itself; experiment: non-reducing SDS-PAGE and Western blot; dimer fractions of the NT*-Bri2 BRICHOScys mutants under non-reducing conditions
[3] = molecular target: the molecule itself; experiment: other fluorescence titration; apparent; tryptophan fluorescence emission change upon dimer formation of the T206W mutant, excitation 280 nm, emission 300-400 nm, 96 well plate; single exponential fit; monomer to dimer/assembly
[4] = molecular target: B2; experiment: non-reducing SDS-PAGE and Western blot; dimer fractions of Bri2 BRICHOScys mutants with or without NT* mixed 1:1 at 10 μM final protein, 20 mM phosphate buffer pH 8, 0.2 mM EDTA, 0.02% NaN3, 2.5x thrombin inhibitor, 37°C overnight; mixed disulfide band; conditions: both partners purified

B1: Bri2 BRICHOS domain (residues 113-231 of full-length human Bri2), wild type (domain or fragment, UniProt Q9Y287 113-231, looked up)
chain: QTIEENIKIFEEEEVEFISVPVPEFADSDPANIVHDFNKKLTAYLDLNLDKCYVIPLNTSIVMPPRNLLELLINIKAGTYLPQSYLIHEHMVITDRIENIDHLGFFIYRLCHDKETYKL
notes: Bri2 (integral membrane protein 2B), human, BRICHOS domain, residues 113-231 of full-length human Bri2; In the monomer Cys164 and Cys223 form an intramolecular disulfide; dimers and oligomers have intermolecular disulfides; also called Bri2 BRICHOS monomers; Bri2 BRICHOS dimers; source: E. coli, expressed and purified as previously described (monomer, dimer and oligomer species isolated)
stoichiometry N [1]: 2 and 4

Binder: B2
binding result [2]: binds

B3: Bri2 BRICHOS Thr to Trp (T206W) mutant (domain or fragment, human, UniProt Q9Y287 113-231, looked up)
chain: QTIEENIKIFEEEEVEFISVPVPEFADSDPANIVHDFNKKLTAYLDLNLDKCYVIPLNTSIVMPPRNLLELLINIKAGTYLPQSYLIHEHMVIWDRIENIDHLGFFIYRLCHDKETYKL
notes: Bri2 (integral membrane protein 2B), human, BRICHOS domain, residues 113-231 of full-length human Bri2, T206W; also called Thr to Trp Bri2 BRICHOS mutant; source: E. coli, expressed and purified as previously described
Kd [3]: 1 ± 0.2 µM

B4: NT*-Bri2 BRICHOScys mutant C223S (NT*-Bri2 BRICHOScys 164-164 dimer) (domain or fragment, human, UniProt Q9Y287 113-231, looked up)
chain: QTIEENIKIFEEEEVEFISVPVPEFADSDPANIVHDFNKKLTAYLDLNLDKCYVIPLNTSIVMPPRNLLELLINIKAGTYLPQSYLIHEHMVITDRIENIDHLGFFIYRLSHDKETYKL
modifications: intermolecular Cys164-Cys164 homodisulfide
notes: Bri2 (integral membrane protein 2B), human, BRICHOS domain, residues 113-231 of full-length human Bri2, C223S; NT* fusion kept as a means to tell the species apart by size; also called Cys164 dimers; source: E. coli, dimer fraction purified with NT* solubility tag
binding result [2]: binds

binding result [4]: binds
B5: Bri2 BRICHOScys mutant C164S without NT* tag (Cys223-Cys223 dimer) (domain or fragment, human, UniProt Q9Y287 113-231, looked up)
chain: QTIEENIKIFEEEEVEFISVPVPEFADSDPANIVHDFNKKLTAYLDLNLDKSYVIPLNTSIVMPPRNLLELLINIKAGTYLPQSYLIHEHMVITDRIENIDHLGFFIYRLCHDKETYKL
modifications: intermolecular Cys223-Cys223 homodisulfide
notes: Bri2 (integral membrane protein 2B), human, BRICHOS domain, residues 113-231 of full-length human Bri2, C164S; also called Cys223 dimers; source: E. coli, dimer fraction purified without NT* solubility tag
